A word on the Kd: it is the free concentration of one partner at which half of the binding sites on the other are occupied at equilibrium, for simple one-to-one binding. The low end stands for a tighter complex, the high end for a looser complex. A word on the stoichiometry N: it is the number of molecules, sites or subunits per partner or assembly.

Three substances from PMC4350430 can be followed below.

The experiment concerns the target His6-ΔIBBMOS6 (Arabidopsis thaliana) (UniProt O04294). The experiment in a line: ITC; MicroCal 205, 25°C, 20 mM HEPES, 150 mM NaCl, pH 7.5; His6–ΔIBB–MOS6 in the cell at 43–54 μM, titrated with His6-tagged cargo at 320–940 μM. In general terms: ITC needs no label: the signal is the heat of the interaction.
Chain of UniProt O04294 (O04294 whole entry, stated change not applied): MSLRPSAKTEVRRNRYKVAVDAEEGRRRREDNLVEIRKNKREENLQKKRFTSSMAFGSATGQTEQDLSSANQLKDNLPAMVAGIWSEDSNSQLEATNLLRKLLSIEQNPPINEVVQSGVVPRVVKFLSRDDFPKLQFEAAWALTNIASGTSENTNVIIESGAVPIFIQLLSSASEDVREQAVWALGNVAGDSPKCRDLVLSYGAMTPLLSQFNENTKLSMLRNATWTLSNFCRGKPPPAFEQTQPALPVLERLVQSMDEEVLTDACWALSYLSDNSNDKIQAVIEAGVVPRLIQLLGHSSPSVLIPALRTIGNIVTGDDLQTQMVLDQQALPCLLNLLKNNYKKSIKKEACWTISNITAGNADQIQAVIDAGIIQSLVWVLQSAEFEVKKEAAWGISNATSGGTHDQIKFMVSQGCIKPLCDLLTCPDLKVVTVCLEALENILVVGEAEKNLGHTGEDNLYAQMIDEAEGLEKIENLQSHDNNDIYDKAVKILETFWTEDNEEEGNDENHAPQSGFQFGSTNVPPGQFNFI

In turn, “HaRxL106ΔC–SV40NLS fusion (recombinant, for ITC)” showed a Kd of 2220 to 3700 nM.
As for His6–SAP11 (natural protein), the equilibrium dissociation constant (Kd) is 4420 to 6800 nM.
In the case of “His6-HaRxL106 (effector domain, amino acids 46–285) (domain or fragment)”, the dissociation constant (Kd) fell in the range of 540 to 850 nM and the stoichiometry N came out at 1.
